“Also recorded” adds a separate entry of the source. Read-outs that look alike come from different tables or passages of the source. *1 amine or outer side, *2 acyl side, *3 side chain or, on linkers, in order; H or OH if unused. Bridges are numbered along the chain shown (N, C = ends). The star is where a group is joined. fluorescein = fluorescein: a label attached as NHS-fluorescein acylation on the lysine side chain (K*); pXylylene = c1cc(C[*:2])ccc1C[*:1]; Cysteamide = C(CS[*:3])N[*:1]; 4‑pentynyl = C#CCCC*

Experiment [1] has as its system HeLa cells. Description: Cell-based transferrin. The conditions noted are these: 50 μM during 60-min pulse and 30-min chase.
For experiment [2], the target named is T1, cNPF1Flu.
T1 chain: cyclo(YNPFEEGK(fluorescein))
Briefly: fluorescence polarization. (In general: In fluorescence polarisation assays a small probe gives low polarisation when free and higher when bound to something large.)

Experiment [3] concerns the target Flu-4-PX.
Experiment [4] deals with Flu-3-OX.
Experiment [5] deals with Flu-3-OX. The source holds these as a separate data set.
In experiment [6] the target is Flu-5-OX.
The target of experiment [7] is Flu-5-OX. This is another data set of the same source.
Experiment [8] deals with T2, 1-PX (thioether 1-C via pXylylene (inferred)).
T2 chain: {4‑pentynyl}-CYNPFEE-Cysteamide
Briefly: fluorescence polarization competition.

Experiment [9] concerns the target T3, 4-OX (bridge 1-C; not fully specified (bridges)).
T3 chain: {4‑pentynyl}-CNPFEE-Cysteamide
Description: fluorescence polarization competition.

In experiment [10] the target is T4, 1-MX (thioether 1-C via meta‑xylene).
T4 chain: {4‑pentynyl}-CYNPFEE-Cysteamide
Description: fluorescence polarization competition.

Experiment [11] addresses T5, 5-OX (linker 1-6 via ortho‑xylene (inferred)).
T5 chain: Ac-CNPFEC-OH
Briefly: fluorescence polarization competition.

In experiment [12] the target is T6, 4-MX (bridge 1-C; not fully specified (bridges)).
T6 chain: {4‑pentynyl}-CNPFEE-Cysteamide
Briefly: fluorescence polarization competition.

The target in experiment [13] is T7, cNPF1 (backbone cyclic).
T7 chain: YNPFEEGG
Description: fluorescence polarization competition.

The target in experiment [14] is T8, 4-PX (bridge 1-C; not fully specified (bridges)).
T8 chain: {4‑pentynyl}-CNPFEE-Cysteamide
Briefly: fluorescence polarization competition.

For experiment [15], the target named is T9, 3-OX (bridge 1-C; not fully specified (bridges)).
T9 chain: {4‑pentynyl}-CNPFE-Cysteamide
Briefly: fluorescence polarization competition.

For experiment [16], the target named is Flu-1-PX.
Experiment [17] concerns the target Flu-4-PX. This is another data set of the same source.
Experiment [18] deals with Flu-1-PX. The source holds these as a separate data set.

Regarding `COc1cc(NC(C)CCCN)c2ncccc2c1` (stereo not drawn) [primaquine], in experiment [1], the “effect on trafficking/recycling of Tf-488” value was “increased signal following the chase, consistent with impaired recycling of internalized Tf-488; also recorded: inhibition of recycling”.

B1: EHD1-EH EH domain (protein)
chain: VGKDKPTYDEIFYTLSPVNGKITGANAKKEMVKSKLPNTVLGKIWKLADVDKDGLLDDEEFALANHLIKVKLEGHELPADLPPHLVPPSKRRHE
As a reminder, the Kd is the constant that tells how readily two partners part at equilibrium. The low end stands for higher affinity, the high end for lower affinity. Usually IC50 stands for the concentration that inhibits the measured activity by half. The low end stands for inhibition by little substance, the high end for a need for much substance. Regarding B1, the Kd was 3 µM in experiment [2]; 1.8 µM in experiment [3]; 14.6 µM in experiment [4]; 4.5 µM in experiment [5]; 1.6 µM in [6]; 7.3 µM in experiment [7]. Also, the Kd in experiment [16] came to 1.1 µM; in experiment [17], 8.1 µM; in experiment [18], 6 µM. The IC50 in experiment [8] was 27.1 µM; in experiment [9], 62.8 µM; in experiment [10] it was 68.8 µM; in experiment [11] it was 34 µM; in experiment [12] it was 88.1 µM; in [13] it was 55.5 µM. Further, the IC50 stood at 38.9 µM in experiment [14] and 76.5 µM in experiment [15].

(Values after PMC5844793 (Bioorganic & medicinal chemistry, 2017).)
